Drawing on paper doi:10.1101/2024.02.24.581848, this text covers Kd, effective KD with 1.5-fold molar excess of the HigA ChAD peptide and stoichiometry N for 2 molecules.

For this experiment, the target named is HigC SecB^TA chaperone of the E. coli NT1F31 HigBAC system (E. coli NT1F31). Kind of experiment: ITC. (In general: In ITC the heat of successive injections is recorded.)

In general, Kd refers to the constant that tells how readily two partners part at equilibrium. What is called stoichiometry N is the number of molecules, sites or subunits per partner or assembly.

Molecule GELTAESYDDSYLDDEDADWTATGQGQKSAG [gpV^48-78 peptide] displayed a Kd of 0.25 µM, an effective KD with 1.5-fold molar excess of the HigA ChAD peptide of 6.6 µM and a stoichiometry N of 0.47.
GELTAESYDDSYLAAAAADWTATGQGQKSAG [gpV^48-78 peptide, poly-alanine substitution of the D61DED64 element] showed a Kd of 7 µM and a stoichiometry N of 0.5.
